Laboratory results published in publication PMC8385042.

Target: TIR domain of Toll-like receptor 1 (TLR1-TIR), residues 625-786 of human TLR1 (human) (UniProt Q15399)
Assay: dynamic light scattering; 100 uM TLR1-TIR, 10 °C, cytoplasm-like buffer, threefold molar excess of ZnCl2 (1:3 protein to metal)

Substance: TIR domain of Toll-like receptor 1 (TLR1-TIR), residues 625-786 of human TLR1 (from UniProt Q15399 625-786) (domain or fragment)
- stoichiometry N: 5
